Assays:
[1] = biological target: PlnDI pre-digested with a heparinase cocktail (heparinases I, II and III); test: far-Western, overlay or dot blot; solid phase: PlnDI, undigested or pre-digested with heparinase cocktail +/- chondroitinase ABC, immobilised on nitrocellulose and incubated with VEGF165; bound VEGF165 detected with VEGF monoclonal antibodies, densitometry; heparin 0.25 ug/ml for competitive inhibition
[2] = biological target: Recombinant perlecan domain I (PlnDI), undigested (UniProt Q05793); test: as above
[3] = biological target: Recombinant perlecan domain I (PlnDI), undigested (UniProt Q05793); test: far-Western, overlay or dot blot; solution phase, pH 7.0: PlnDI (5 ug), untreated or pre-digested with heparinase cocktail and/or chondroitinase ABC, pre-incubated with 20 ng VEGF165 for 1 hr at room temperature (25 mM HEPES), then blotted onto nitrocellulose; bound VEGF165 detected with anti-VEGF165 antibodies; background subtracted
[4] = biological target: Recombinant perlecan domain I (PlnDI), undigested (UniProt Q05793); test: far-Western, overlay or dot blot; solution phase, pH 6.0: PlnDI (5 ug) pre-incubated with 20 ng VEGF165 for 1 hr at room temperature (25 mM HEPES), then blotted onto nitrocellulose; bound VEGF165 detected with anti-VEGF165 antibodies; background subtracted

percent reduction of binding against undigested PlnDI [1]: 75%
percent of binding prevented by heparin 0.25 ug/ml [2]: 80%
percent reduction of binding against pH 8.0 [3]: 50%
percent reduction of binding against pH 8.0 [4]: 80%
Substance: Recombinant human vascular endothelial growth factor-165 (ligand)

— PMC2987766
